According to patent US20030175276A1:

Target: VEGF:sFlk-1 complex (human; mouse) (UniProt P15692)
Experiment: capture ELISA: biotinylated sFlk-1 complexed with VEGF titrated onto wells coated with irrelevant IgM, concentration giving 50% maximal binding; extrapolated value

VEGF:sFlk-1 complex (human; mouse), sequence (P15692 other isoform, or with tags, fused parts or gaps limits assumed, chain 1 of 2): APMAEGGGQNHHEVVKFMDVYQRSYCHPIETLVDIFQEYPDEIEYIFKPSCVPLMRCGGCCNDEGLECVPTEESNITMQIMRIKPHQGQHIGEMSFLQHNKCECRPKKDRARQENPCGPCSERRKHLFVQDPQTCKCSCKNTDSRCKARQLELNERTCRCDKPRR
VEGF:sFlk-1 complex (human; mouse), sequence (P35918 20-762 limits assumed, chain 2 of 2, further chain): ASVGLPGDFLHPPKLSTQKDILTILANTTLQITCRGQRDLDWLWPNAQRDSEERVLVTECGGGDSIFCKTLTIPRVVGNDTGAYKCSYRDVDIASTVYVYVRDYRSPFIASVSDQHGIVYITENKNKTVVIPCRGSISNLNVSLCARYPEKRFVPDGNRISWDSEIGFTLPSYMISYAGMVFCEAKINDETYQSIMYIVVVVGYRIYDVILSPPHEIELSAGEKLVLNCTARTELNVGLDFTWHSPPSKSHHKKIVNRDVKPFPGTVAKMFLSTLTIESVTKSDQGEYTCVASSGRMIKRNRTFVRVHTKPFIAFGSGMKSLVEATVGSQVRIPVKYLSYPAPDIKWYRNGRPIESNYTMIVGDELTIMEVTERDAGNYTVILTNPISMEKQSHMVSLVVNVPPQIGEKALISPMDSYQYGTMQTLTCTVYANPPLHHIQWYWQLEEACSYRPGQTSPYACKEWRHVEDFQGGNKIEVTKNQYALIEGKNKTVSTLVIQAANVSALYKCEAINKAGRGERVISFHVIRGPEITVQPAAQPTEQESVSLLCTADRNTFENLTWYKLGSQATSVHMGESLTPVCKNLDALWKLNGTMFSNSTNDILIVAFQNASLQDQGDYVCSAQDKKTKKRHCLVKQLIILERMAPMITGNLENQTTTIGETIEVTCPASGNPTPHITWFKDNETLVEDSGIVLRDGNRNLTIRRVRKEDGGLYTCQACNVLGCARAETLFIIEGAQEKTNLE

## irrelevant IgM (negative control of Table 2) (antibody)
  EC50: 600 nM
